Here are results for one substance from paper PMC8632968.

The experiment addresses S. cerevisiae full-length Ty3 integrase (assembled on Ty3 LTR DNA as the Ty3 intasome) (S. cerevisiae). The experiment in a line: cryo-EM structure; minimal integration machinery: Ty3 intasome with TFIIIB on unlabelled 55-bp tD(GUC)K DNA, without TFIIIC; gel filtration in 40 mM Tris pH 7, 80 mM NaCl, 7 mM MgCl2, 1 mM DTT; un-crosslinked; strand-transfer complex, 4.0 Å.

In general, stoichiometry N refers to the number of molecules, sites or subunits per partner or assembly. For the substance “S. cerevisiae full-length Ty3 integrase (assembled on Ty3 LTR DNA as the Ty3 intasome) (enzyme)”, the stoichiometry N is 4.
